Key:
[1] = in vitro; Pavillard et al. 2002; cited from earlier work
[2] = BChE-mediated CPT-11 hydrolysis, SN38 quantitated by reverse-phase HPLC with fluorescence detection; Km by Hofstee plot; assay type: biochemical; details: 37° C., 24 hours, CPT-11 1-80 μM, Hofstee plot
Procedure: BChE plasmid variants were expressed transiently in the human embryonic kidney cell line 293T and assayed for activity at 72 hours post-transfection. Primary screening of variants was performed by indirect measurement of enzymatic activation of CPT-11 (FIG. 2) in SW48 colon carcinoma cell cytotoxicity assays. […] Functional hits identified in these assays were characterized by sequence analysis of the corresponding DNA from the original preps. […] Enzyme was incubated at 37° C. for 24 hours with CPT-11 over a range of concentrations from 1-80 μM. […] Velocity (v) is in light absorbance units at 540 nm. Substrate concentration [s] is μM CPT-11.
Samples were acidified and resolved by reverse-phase HPLC on a NovaPak C18 column to separate SN38 from unactivated CPT-11. SN38 peak area under the curve (AUC) was used to compare CPT-11 activation by the wild-type enzyme to the optimized BChE.4-1 variant.

[3] = CPT-11 conversion to SN-38, fluorescent HPLC detection, conditioned media of transiently expressed BChE variants; assay type: biochemical; details: conditioned media
Procedure: Butyrylcholinesterase variants were assayed for CPT-11 conversion activity using fluorescent High Performance Liquid Chromotography (HPLC) detection of SN-38 formation as described in Dodds and Rivory, Mol. Pharmacol. 56: 1346-1353 (1999), which is incorporated herein by reference. Briefly, conditioned media from transiently expressed BChE variants were exposed to 20 mM CPT-11 for 72 hours at 37° C. and analyzed by HPLC for SN-38 formation (peak at about 4 minutes column retention time).

[4] = system: SW48 colon carcinoma cells; experiment: MTT cytotoxicity assay of CPT-11 activated by BChE variants; details: CPT-11 at 4 mM incubated 72 hours with enzyme, cells exposed at 0.5 mM for 72 hours, versus mock
Procedure: Clinically relevant concentrations of CPT-11 (0.5-10 mM) were exposed to BChE variants for 24-72 hours at 37° C. Briefly, CPT-11 at 4 mM was incubated for 72 hours with expressed wild-type BChE, the 6-6 variant, or F227A/L286Q variant. SW48 colon carcinoma cells were exposed to the activated CPT-11 at a concentration of 0.5 mM for 72 hours and cell viability measured by the MTT method. The MTT (3-(4,5-dimethylthiazolyl-2)-2,5-diphenyltetrazolium bromide) assay is commercially available and can be used to measure cell viability based on the ability of a cell to reduce a redox sensitive dye. Note the 6-6 variant is a quadruple mutant referenced as A328W/Y332M/S287G/F227A (SEQ ID NO: 16) in the nomenclature used throughout to describe variants. The 6-6 variant contains the following codons at variant positions: GCG encodes alanine at amino acid position 227, GGT encodes glycine at amino acid position 287, ATG encodes methionine at amino acid position 332, and TGG encodes tryptophane at amino acid position 328.

[5] = o-nitrophenyl acetate (o-NPA) hydrolysis assay of antibody-captured butyrylcholinesterase variants (carboxylesterase activity); assay type: biochemical; details: antibody capture/normalization, absorbance 405 nm
Procedure: A modification of this assay that measures o-NPA activity of butyrylcholinesterase variants normalized by capturing with an anti-butyrylcholinesterase antibody was performed as described below.
Protocol to Determine Carboxylesterase activity of Captured Butyrylcholinesterase by o-Nitrophenyl acetate: • 1) Coat 96-well Immulon 2 plates with rabbit anti-human butyrylcholinesterase (Dako #A0032) at 10 mg/ml in PBS (100 ml/well) overnight at 4° C. • 2) Remove coating solution and block plate with 3% BSA in PBS (250 ml/well) for 2 hours at room temperature. • 3) Add 200 ml butyrylcholinesterase variant conditioned media and incubate at RT for 2 hrs. • 4) Wash plate 3 times with 250 ml/well PBS. • 5) Add 85 ml/well 0.1 M potassium phosphate pH 7.0 • 6) Add 13.6 mg o-NPA to 100 ml acetonitrile, mix to dissolve. Add 100 ml of this stock to 6.3 mls water and mix well. • 7) Wash plate 3 times with PBS. • 8) Add 15 ml of diluted o-NPA substrate. • 9) Read absorbance at 405 nm.
Conditioned media from butyrylcholinesterase variants that were transiently expressed in 293T cells was tested using the above described anti-butyrylcholinesterase antibody capture/normalization assay for carboxylesterase activity. […] The first variant shown in FIG. 1 is F227A (see left-most bar). The level of activity of the other variants can be compared to the level of activity of F227A. […]

Molecule | cytotoxicity relative to CPT-11 [1] | Km [2] [µM] | conversion of CPT-11 ([3]; HPLC assay) | CPT-11 conversion to SN-38 (SN-38 formation by HPLC), in words ([3]; 20 mM CPT-11, 72 hours, 37° C., versus mock / wild-type) | CPT-11 mediated cytotoxicity in SW48 colon carcinoma cells [4] | level of carboxylesterase activity relative to F227A [5]
CCc1c2c(nc3ccc(O)cc13)-c1cc3c(c(=O)n1C2)COC(=O)[C@]3(O)CC [SN38, 7-ethyl-10-hydroxycamptothecin] | greater than 1000 fold | – | – | – | – | –
wild-type butyrylcholinesterase (protein, UniProt P06276 29-602, looked up) Cholinesterase: EDDIIIATKNGKVRGMNLTVFGGTVTAFLGIPYAQPPLGRLRFKKPQSLTKWSDIWNATKYANSCCQNIDQSFPGFHGSEMWNPNTDLSEDCLYLNVWIPAPKPKNATVLIWIYGGGFQTGTSSLHVYDGKFLARVERVIVVSMNYRVGALGFLALPGNPEAPGNMGLFDQQLALQWVQKNIAAFGGNPKSVTLFGESAGAASVSLHLLSPGSHSLFTRAILQSGSFNAPWAVTSLYEARNRTLNLAKLTGCSRENETEIIKCLRNKDPQEILLNEAFVVPYGTPLSVNFGPTVDGDFLTDMPDILLELGQFKKTQILVGVNKDEGTAFLVYGAPGFSKDNNSIITRKEFQEGLKIFFPGVSEFGKESILFHYTDWVDDQRPENYREALGDVVGDYNFICPALEFTKKFSEWGNNAFFYYFEHRSSKLPWPEWMGVMHGYEIEFVFGLPLERRDNYTKAEEILSRSIVKRWANFAKYGNPNETQNNSTSWPVFKSTEQKYLTLNTESTRIMTKLRAQQCRFWTSFFPKVLEMTGNIDEAEWEWKAGFHRWNNYMMDWKNQFNDYTSKKESCVGL | – | 40 | less than 1% | did not show detectable levels of SN-38 | significantly enhanced | approximately 50%

Source: US20050136044A1, “Butyrylcholinesterase variants that alter the activity of chemotherapeutic agents” (priority 2003, published 2005)
